Measured values from the RNAGym collection of RNA variant scans (doi:10.7554/elife.80360).

B1: Hairpin Ribozyme (parent)
chain: GUCCUCUUUCACGUGCGCGUGAAAGAGAGAAGUGAACCAGAGAAACACACGUUGUGGUAUAUUACCUGGUA

Variants of: B1
Assay: self-cleavage, relative activity (ratio to wild type); higher = more cleavage; co-transcriptional

Compared with U8G A45G, U8A G21C is higher in self-cleavage: 0.125 for the first, 0.504 for the second.

Going from U8A A30U to U8A C37G, the self-cleavage rises from 0.0488 to 0.241.

Compared with U8A C37U, U8A C37A is lower in self-cleavage: 0.56 for the first, 0.288 for the second.

First: U7G G54C
Second: U7G U33G
The self-cleavage of the first is higher: 0.41 for the first, 0.194 for the second.

Compared with U7G C48A, U7G C50U is higher in self-cleavage: 0.142 for the first, 0.371 for the second.

Going from U7G C50A to U8A A39C, the self-cleavage rises from 0.167 to 0.396.

First: U8G C10G
Second: U8G A61G
The self-cleavage of the first is higher: 0.676 for the first, 0.0213 for the second.

Compared with U8G G34C, U8G G34A is lower in self-cleavage: 1.19 for the first, 0.767 for the second.

Going from U9A G40C to U8G G29C, the self-cleavage rises from 0.133 to 0.141.

Compared with U7G U62G, U8G U55A is lower in self-cleavage: 0.223 for the first, 0.193 for the second.

First: U8G U55C
Second: U7G U8A
The self-cleavage of the first is lower: 0.232 for the first, 0.942 for the second.

Going from U7G U8C to U8C G19A, the self-cleavage falls from 0.656 to 0.302.

Going from U9A A61U to U9A A61G, the self-cleavage falls from 0.185 to 0.148.

Compared with U9C A44G, U8A G15C is higher in self-cleavage: 0.19 for the first, 0.954 for the second.

Going from U9A G27A to U9A G54U, the self-cleavage rises from 0.25 to 0.39.

Compared with U8A G54C, U8G G21A is higher in self-cleavage: 0.284 for the first, 0.693 for the second.

First: U8G G21C
Second: U8C G21C
The self-cleavage of the first is higher: 0.401 for the first, 0.114 for the second.

Going from U8C G21A to U7G G68C, the self-cleavage falls from 0.264 to 0.224.

First: U7G G68A
Second: U8C G32C
The self-cleavage of the first is higher: 0.3 for the first, 0.0916 for the second.

Compared with U8A U70A, U8A U62C is lower in self-cleavage: 0.665 for the first, 0.183 for the second.

Going from U9C C16A to U8A A22C, the self-cleavage falls from 0.761 to 0.594.

Compared with U9A A64G, U9A A64C is lower in self-cleavage: 0.284 for the first, 0.0749 for the second.

First: U8A U14C
Second: U8C G69A
The self-cleavage of the first is higher: 0.845 for the first, 0.327 for the second.

Compared with U8C G69U, U9A G19C is higher in self-cleavage: 0.186 for the first, 0.588 for the second.

Compared with U8A A23U, U8G C16G is lower in self-cleavage: 0.911 for the first, 0.395 for the second.

Going from U8G C16A to U8G C16U, the self-cleavage rises from 0.648 to 0.916.

Compared with U9A A22U, U8A A71U is lower in self-cleavage: 0.907 for the first, 0.631 for the second.

First: U8G A41U
Second: U8G A41G
The self-cleavage of the first is higher: 1.07 for the first, 0.673 for the second.

Compared with U9A G57A, U9A G57U is higher in self-cleavage: 0.141 for the first, 0.182 for the second.

Going from U9A A35C to U9C A71C, the self-cleavage rises from 0.69 to 1.24.

Compared with U9C A71G, U9A G51C is lower in self-cleavage: 0.933 for the first, 0.673 for the second.

Going from U9A G51A to U8A C65U, the self-cleavage falls from 0.688 to 0.258.

First: U8A C65G
Second: U8A C65A
The self-cleavage of the first is lower: 0.104 for the first, 0.63 for the second.

Going from U8C A44U to U8C A44G, the self-cleavage falls from 0.142 to 0.0935.

First: U8C A44C
Second: U7G G19C
The self-cleavage of the first is lower: 0.131 for the first, 0.592 for the second.

First: U7G A61C
Second: U9A U70A
The self-cleavage of the first is lower: 0.261 for the first, 0.581 for the second.

First: U9A U70C
Second: U8A G17C
The self-cleavage of the first is higher: 0.719 for the first, 0.63 for the second.

Compared with U8C G40U, U7G G32C is lower in self-cleavage: 0.164 for the first, 0.161 for the second.

First: U8C A61C
Second: U8C A61U
The self-cleavage of the first is lower: 0.0941 for the first, 0.182 for the second.

First: U8C A45G
Second: U8C U9C
The self-cleavage of the first is lower: 0.149 for the first, 0.275 for the second.

First: U8C U9A
Second: U9C A45C
The self-cleavage of the first is higher: 0.266 for the first, 0.121 for the second.

Compared with U9C A45U, U8G U62A is higher in self-cleavage: 0.0912 for the first, 0.0946 for the second.

Compared with U8G U62C, U8C A71G is higher in self-cleavage: 0.332 for the first, 0.974 for the second.

Compared with U8G A49G, U8G A49U is lower in self-cleavage: 0.264 for the first, 0.164 for the second.

First: U8C U63A
Second: U8G C18U
The self-cleavage of the first is lower: 0.0901 for the first, 0.678 for the second.

First: U8G C18A
Second: U9C A36C
The self-cleavage of the first is higher: 0.72 for the first, 0.491 for the second.

Compared with U8C G42A, U9C C48G is lower in self-cleavage: 0.177 for the first, 0.145 for the second.

Going from U9C C48U to U7G G56A, the self-cleavage rises from 0.0794 to 0.151.

Going from U7G G56C to U9A U60C, the self-cleavage rises from 0.0943 to 0.993.

Compared with U8A U67G, U9A A47C is lower in self-cleavage: 0.237 for the first, 0.205 for the second.

Compared with U7G C66G, U8C C38G is higher in self-cleavage: 0.0969 for the first, 0.154 for the second.

Going from U8C C38U to U8G G42A, the self-cleavage falls from 0.245 to 0.156.

Compared with U7G U67G, U8A G40C is lower in self-cleavage: 0.283 for the first, 0.156 for the second.

Going from U8G U53G to U9C C18G, the self-cleavage falls from 0.705 to 0.56.

First: U7G A43U
Second: U8C C65A
The self-cleavage of the first is lower: 0.123 for the first, 0.788 for the second.

First: U8A A59C
Second: U9A G15U
The self-cleavage of the first is lower: 0.165 for the first, 0.864 for the second.

First: U9A G15A
Second: U8G A28G
The self-cleavage of the first is lower: 0.704 for the first, 0.843 for the second.

First: U8G A26C
Second: U8G A26U
The self-cleavage of the first is lower: 0.25 for the first, 0.281 for the second.

First: U8A G56C
Second: U8A G56U
The self-cleavage of the first is higher: 0.196 for the first, 0.134 for the second.

First: U8G G51A
Second: U9C C65A
The self-cleavage of the first is lower: 0.739 for the first, 0.945 for the second.

Compared with U9C C65G, U9C A61C is higher in self-cleavage: 0.159 for the first, 0.183 for the second.

Compared with U8C C46A, U9C C46G is higher in self-cleavage: 0.102 for the first, 0.167 for the second.

First: U9C C66G
Second: U9A C12U
The self-cleavage of the first is lower: 0.202 for the first, 0.645 for the second.

Compared with U9A A30U, U8G C50U is higher in self-cleavage: 0.195 for the first, 0.327 for the second.

Going from U7G G57A to U8G A23C, the self-cleavage rises from 0.149 to 1.21.

Going from U9A U14A to U8A A31C, the self-cleavage falls from 0.594 to 0.0591.

Compared with U8A G27A, U8G G19C is higher in self-cleavage: 0.236 for the first, 0.36 for the second.

Compared with U8C G13A, U8C G13U is lower in self-cleavage: 0.722 for the first, 0.529 for the second.

First: U8A G42A
Second: U7G U55C
The self-cleavage of the first is lower: 0.129 for the first, 0.152 for the second.

Going from U7G U55A to U8A C12U, the self-cleavage rises from 0.225 to 0.747.

Compared with U8A G19C, U8A G19A is higher in self-cleavage: 0.553 for the first, 0.558 for the second.

Compared with U9C G19C, U8C G34A is higher in self-cleavage: 0.485 for the first, 1.18 for the second.

Compared with U8C U60G, U8C U60A is higher in self-cleavage: 0.489 for the first, 0.554 for the second.

Compared with U8C U60C, U9A A26G is lower in self-cleavage: 1.23 for the first, 0.825 for the second.

Going from U8A C10A to U9C A28C, the self-cleavage falls from 0.458 to 0.394.

First: U7G G42A
Second: U8A A36C
The self-cleavage of the first is lower: 0.218 for the first, 0.412 for the second.

Compared with U9A C65A, U9A U62A is lower in self-cleavage: 0.69 for the first, 0.174 for the second.

Compared with U8A C38U, U9A A44U is lower in self-cleavage: 0.357 for the first, 0.109 for the second.

Going from U9A A44C to U7G C18A, the self-cleavage rises from 0.132 to 1.01.

Compared with U8A A45U, U8A A45G is lower in self-cleavage: 0.198 for the first, 0.193 for the second.

Going from U8A A45C to U7G U70A, the self-cleavage rises from 0.158 to 0.673.

Compared with U8C G25U, U9C G15U is higher in self-cleavage: 0.32 for the first, 0.879 for the second.

Going from U8G U20G to U8G U20A, the self-cleavage falls from 0.614 to 0.353.

Variant U8C C10G has a self-cleavage of 0.114.
